Substitutions are numbered along the chain they refer to.
Tests used:
[1] = molecular target: human IGF1R extracellular domain, recombinant, His tag at C-terminus (human) (UniProt P08069); experiment: SPR (Biacore T200), His-tagged human IGF1R ECD captured by anti-his antibody on CM4 chip, bivalent model
[2] = molecular target: human IGF1R, endogenous, on the surface of breast cancer cell lines (MCF-7, JIMT-1, BT474) (human) (UniProt P08069); experiment: FACS on MCF-7 cells, antibody 10 ug/mL (2nd Ab only 2.86, not treated 1.88)
[3] = molecular target: human IGF1R extracellular domain, recombinant, His tag at C-terminus (human) (UniProt P08069); experiment: ELISA on ECD of IGF1R, bispecific form
[4] = molecular target: human IGF1R, endogenous, on the surface of breast cancer cell lines (MCF-7, JIMT-1, BT474) (human) (UniProt P08069); experiment: FACS on MCF-7 cells (2nd Ab only 2.92)

B1: F06 IgG (anti-IGF1R clone F06, full IgG1 form) (antibody, from a related filing, V domains shown)
VH: EVQLLESGGGLVQPGGSLRLSCAASGFTFSSYDMSWVRQAPGKGLEWVSAISYDNGNTYYADSVKGRFTISRDNSKNTLYLQMNSLRAEDTAVYYCAKGVLTTLMNWFDYWGQGTLVTVSS
VL: QSVLTQPPSASGTPGQRVTISCTGSSSNIGSNDVSWYQQLPGTAPKLLIYANSNRPSGVPDRFSGSKSGTSASLAISGLRSEDEADYYCGTWAGSLNGYVFGGGTKLTVL
- Kd [1]: 478 nM

B2: Hu3A9-C04 (bispecific antibody form of 1564 affinity variant C04) (bispecific antibody, part only; not given: humanized 3A9 IgG carrier, linker, not shown: another chain or arm of the molecule; a dimerising Fc or GST; large carriers; small tags and cut ends)
scFv: QSVLTQPPSASGTPGQRVTISCTGSSSNIGSNDVSWYQQLPGTAPKLLIYANSNRPSGVSDRFSGSKSGTSASLAISGLRSEDEADYYCGAWEQWLNGYVFGCGTKLTVLGGGGSGGGGSGGGGSGGGGSEVQLLESGGGLVQPGGSLRLSCAASGFTFSSYDMSWVRQAPGKCLEWVSAISYDNGNTYYADSVKGRFTISRDNSKNTLYLQMNSLRAEDTAVYYCAKGVLTTLMNWFDYWGQGTLVTVSS
- GeoMean, Internalization at 37° C. [2]: 7.23
- EC50 [3]: 0.107 nM

B3: C04 (1564 affinity variant) in bispecific antibody form, backbone not stated (bispecific antibody, not shown: small tags and cut ends)
scFv: B2 scFv
- GEOmean [4]: 3.88

B4: hu3A9x1564_F06 (bispecific antibody: humanized 3A9 IgG with F06 scFv) (bispecific antibody, part only; not given: humanized 3A9 IgG carrier, linker, not shown: another chain or arm of the molecule; a dimerising Fc or GST; large carriers; small tags and cut ends)
scFv: B2 scFv with A91T, E93A, Q94G, W95S
- GeoMean, Internalization at 37° C. [2]: 19.8

From patent US20220348665A1
